Data taken from the DeepSol protein solubility set.

experiment: soluble on expression in E. coli; label from the status in PepcDB or PDB records

Soluble on expression in E. coli, not soluble:
MGSDKIHHHHHHMKLETIDYRAADSAKRFVESLRETGFGVLSNHPIDKELVERIYTEWQAFFNSEAKNEFMFNRETHDGFFPASISETAKGHTVKDIKEYYHVYPWGRIPDSLRANILAYYEKANTLASELLEWIETYSPDEIKAKFSIPLPEMIANSHKTLLRILHYPPMTGDEEMGAIRAAAHEDINLITVLPTANEPGLQVKAKDGSWLDVPSDFGNIIINIGDMLQEASDGYFPSTSHRVINPEGTDKTKSRISLPLFLHPHPSVVLSERYTADSYLMERLRELGVL
MKIKTILTPVTCALLISFSAHATNADNYKNVINRTGAPQYMKDYDYDDHQRFNPFFDLGAWHGHLLPDGPNTMGGFPGVALLTEEYINFMASNFDRLTVWQDGKKVNFTLEAYNIPGALVQKLTAKDVQVEMTLRFATPRTSLLETKIISNKPLDLVWDGELLEKLEAKEGKPLSDKTIAGEYPDYQRKISATRDGLKVTFGKVRATWDLLTSGESEYQVHKSLPVQTEINGNRFTSKAHINGSTTLYTTYSHLLTSQEVSKEQMQIRDILARPAFYLTASQQRWEEYLKKGLTNPDATPEQTRVAVKAIETLNGNWRSPGGAVKYNTVTPSVTGRWFSGNQTWPWDTWKQAFAMAHFNPDIAKENIRAVFSWQIQPGDSVRPQDVGFVPDLIAWNLSPERGGDGGNWNERNTKPSLAAWSVMEVYNVTQDKTWVAEMYPKLVAYHDWWLRNRDHNGNGVPEYGATRDKAHNTESGEMLFTVKKGNKEETQSGLNNYARVVEKGQYDSLEIPAQVAASWESGRDDAAVFGFIDKEQLDKYVASGGKRSDWTVKFAENRSQDGTLLGYSLLQESVDQASYMYSDNHYLAEMATILGKPEEAKRYRQLAQQLADYINTCMFDPATQYFYDVRIEDKPLANGCAGKPIVERGKGPEGWSPLFNGAATQANADAVVKVMLDPKEFNTFVPLGTAALTNPAFGADIYWRGRVWVDQFWFGLKGMERYGYRDDALKLADTFFRHAKGLTADGPIQENYNPLTGAQQGAPNFSWSAAHFYMLYNDFFRKQ
MAHHHHHHMGYTRERTNRHFFVARANAFFSRLPIARVQRSLAMEAVREGRMRPWKYTKEQILGAPVTCNFEYNPRPVRLIGTVMDAHTEETSIKGGLKVYARNEETNMMLWIPPGNPKLRHEVTSTKGSFQHYLDERDKWDEAWITGRARMK
GPGSMRAVVFSDVASAELREHIRAIASTSYAEVVYVDVSESAEADLATAWHTRYGGASHSPPAARDELDDLKNTFVCYLTEQKTIEDSDVVYAVFVAEVHTLVLTPSVTLTPLMHATADGSVSARKAAIESFFSVAPSSSSAEVIVVEGGDGAGKETQTGLLVRRVHAAGDEVHALDFPNEKGLYGGLVRAVLSGKKGPISELNPQLFSFLYSLNRFGCARQLHFWLRRGSSVVLDRYYTANFGHQASKLPPEEREAFISDLEFMEVEWLGLPRATYVLYLDLPPAVALEAMRQDATRKQLDIHETAGSDYKERVRQTYRWCCEHLPGWHHIECFSDDGRRLTREEVHASITSHLRDAGSRAIGAPS
MDALVANYASDSDSDGDAPAATAGEAAPVPPEPSALLPPPPLDLLQPPNFVDCSTMAQGSRVRSFPHVEGNYALHVYIPVVIPSDAKKHLVLVMRRAASFVPDLYAIDADYALSELCKDEQKLEKVLLSREFHVSLGRTVAIQVHQIESLVAMLRQKFRSQQRYWMDFNKWEHFVNDDCTRSFLSLEVTSTGLPEISKQITMVDDVYRLHGLPEFYKNPRPHISLAWALGDVSCKLKQAIKEIEKSQSSLGTSQISNLRCKFSHVVCKIGKKVYDICKLAD
MGSDKIHHHHHHMHFAPVEQATRFLADNPDIELFELFILDANGVPRGKLLHREELLAVYQTGRPLPSTILGLTLNGDDVENSGLVWDVGDIDCRAYPLDGSLVRLPWRRVPTAAVQVSMHPSEGLPASIADPRHVLLRTIEALKADGYHPVMACELEFYLLDQQRDAQGRPQPALDNDGGRPRSTQVYGLRELEQIEPFLADLYAACKAQGIPARTAISEYAPGQVEITLEHGDALQAMDQAVRYKRLVKGVAHAHGMQACFMAKPFAQLAGTGMHMHLSLADSAGNNLFASEDKAGTPLLRQAVAGMLRHLRDSLLLFCPNANSFRRFQANSYAPLAPTWGVDNRTVSLRVPGGPANSRHVEHRICGADANPYLAAAAILAASHWGIREQLDPGAPVEGNGYAQATEHLPTDWLTALDALQHSDWAREALGEDFLGVYLKVKRAEYRQFMAEVSEQDWRWYLHQA
TPTVDHVLLNIALNLSSNRSHEQQYQNLIDGVAQVFPCDASCLFIFDEDGFLTPVAVKGLSSSVLGRRYFPKAHPRLDAIIHSREPVRFDADCSLPDPFDGTLLTEDQCIDVHDCMGFSLYVEGQLVGALTMDALTVGAFDDIDPVAIETFAALTAATLRNIAQLKALKAQNQKQKSVTQTLIQQARSQHG
MSLELKPKRFLVLDDQLVLRKLISRQASFFTRFAVEIDEFSDPAEALRSIAEGGYHLVITDIGMPGMNGIDFIKNVARLGYQSALLIISGYDGKTLQTIADMSVNLGLSCTRFLSKPYSAEAFVAALNGIFSEMERSEAEGHHHHHH
MAHHHHHHMASMNHPDELEGSATSGVLCPLTAYEEVPPTKTRSQIIKEQLLDLENYSFEIPDRPEGDPSGKLAYLDMCEQLHKESFMKFPTHSVANSLCEGKESLDVSFFALGKKGSAALAAALRVNLTIRKLSLLRNHITPSGAMEIARALSETKVVSDLDLSENLLGLTDADDIQGGAVVAEFLKPGNVLKTLSLRDNKLSDQHVTEFAEAAIDNTELHSLDLSFNRIGYIGAIELANILSKNADLQEINLEWNQFQTIGSRHILAEGLLLNNTIKRFNMSWNGLDDACGVLVGRIISENDIEEIVVAHNRIGPAGAEAIAKGLLNTSALTTLILDDNPMQNEGCAAILRVVGEAATLTNVSLQQCRCDSSVVLEADRVMKEVRPDLDIRISEGCCAKVVM
MASGKRKGLSFDDKKTRLLELFNETCDFYTLKELEKIAPKLKGIITQSVKDVLQSLVDDDLVNSDKCGVQTIYWCLPSEAVAKRQRRLDALQQQLAEKRQKLTALQRQLVQVQAGREDSVERTAVLERLAACEAAWRERQRTLESYLECDPDVLAQRETETKTLIEQANRWTDNLYVIRSYVQRNLGVDLDLFDQQFELKPALQYLE
ESCDLEVYDRVNQSDQLCVISGQGNKRVSFYVTEGVVRNLSLGDKMTVEKEGNAYEGVINDISTMVDDSNGLFKIKADLAQADSVATGSVVKVKVISGRSDNVMTVPVDAIYYDGGVGNVYVYEDGAVHKKEVEVGLYDSELAEIRSGLAADELVISTWSSQLYEGSTVNLKSEGGESAPAGKEPGTGRTETSAAAE

Soluble on expression in E. coli, soluble:
MSLSQLEPRQQAFRNAMAHLSAAVNVITSNGPAGRCGITATAVCSVTDSPPTLMLCINRNSEMNTVFKANGRLCVNVLSGEHEEVARHFAGMTEVPMERRFALHDWREGLAGLPVLHGALANLQGRIAEVQEIGTHSVLLLELEDIQVLEQGDGLVYFSRSFHRLQCPEGGSHHHHHH
KLFEHTVLYDSGDAFFELKGNASMKLSPKAAIEVCNEAAKKGLWILGIDGGHWLNPGFRIDSSASWTYDMPEEYKSKIPENNRLAIENIKDDIENGYTAFIITLKM
MSSATASIKLSNGVEMPVIGLGTWQSSPAEVITAVKTAVKAGYRLIDTASVYQNEEAIGTAIKELLEEGVVKREELFITTKAWTHELAPGKLEGGLRESLKKLQLEYVDLYLAHMPAAFNDDMSEHIASPVEDVWRQFDAVYKAGLAKAVGVSNWNNDQISRALALGLTPVHNSQVELHLYFPQHDHVDFCKKHNISVTSYATLGSPGRVNFTLPTGQKLDWAPAPSDLQDQNVLALAEKTHKTPAQVLLRYALDRGCAILPKSIQENRIKENFEVFDFSLTEEDIAKLEESKNSQRLFLQDFMTGHPEDAFAAERK
MSLGLLDNVKKMVKKEATENPQQTSDDQKQVQAIHVTNGIDPKVIDAMNERMTKIENDLGKLSGEMEGQKKTLNDIKNELEGIKENVKMVVSLYELVSRDFNPFMDKTPEEIRGITDTLAEQVNNVKQLVEAAIKDLRELYGVPDIDQFIQMEEKKEGHHHHHH
